This note sets out measurements from US20160067305A1 (UNIVERSITY OF HONG KONG, published 2016).

This assay concerns the target T1, FLAG-tagged SIRT1 (ectopically expressed in HEK293 cells) (UniProt Q96EB6 1-747, limits assumed).
T1 construct: Immunoprecipitated from lysate of transfected HEK293 cells; also called FLAG-SIRT1; not shown: FLAG tag
T1 sequence (looked up): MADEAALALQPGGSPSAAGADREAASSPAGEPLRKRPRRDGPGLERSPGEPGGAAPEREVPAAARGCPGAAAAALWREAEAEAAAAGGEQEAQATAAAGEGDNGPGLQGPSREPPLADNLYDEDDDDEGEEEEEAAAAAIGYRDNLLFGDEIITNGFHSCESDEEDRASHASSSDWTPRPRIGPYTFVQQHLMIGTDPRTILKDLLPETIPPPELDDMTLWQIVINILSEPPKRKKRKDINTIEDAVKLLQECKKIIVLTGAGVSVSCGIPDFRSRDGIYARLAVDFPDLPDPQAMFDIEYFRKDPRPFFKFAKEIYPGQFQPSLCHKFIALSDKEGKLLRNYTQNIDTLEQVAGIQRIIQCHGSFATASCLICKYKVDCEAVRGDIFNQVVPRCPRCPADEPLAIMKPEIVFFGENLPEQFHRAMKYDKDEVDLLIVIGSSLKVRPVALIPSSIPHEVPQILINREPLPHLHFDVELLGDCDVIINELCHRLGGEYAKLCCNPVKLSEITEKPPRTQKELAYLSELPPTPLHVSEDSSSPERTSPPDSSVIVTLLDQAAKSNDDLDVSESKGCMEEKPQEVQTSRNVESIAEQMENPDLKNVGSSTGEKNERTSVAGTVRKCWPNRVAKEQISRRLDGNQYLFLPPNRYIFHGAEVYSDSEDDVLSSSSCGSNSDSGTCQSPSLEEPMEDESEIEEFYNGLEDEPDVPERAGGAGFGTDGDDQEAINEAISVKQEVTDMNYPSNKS
The assay can be described thus: co-immunoprecipitation in transfected HEK293 cells, Western blot (FIG. 1F). The source says: This was further confirmed by co-immunoprecipitation in HEK293 cells expressing FLAG-SIRT1 together with either lamin A or lamin C.
A general note: A western blot detects proteins with antibodies after separation by electrophoresis.

B1: lamin C (ectopically expressed in HEK293 cells) (other, UniProt P02545-2 1-572, looked up)
chain: METPSQRRATRSGAQASSTPLSPTRITRLQEKEDLQELNDRLAVYIDRVRSLETENAGLRLRITESEEVVSREVSGIKAAYEAELGDARKTLDSVAKERARLQLELSKVREEFKELKARNTKKEGDLIAAQARLKDLEALLNSKEAALSTALSEKRTLEGELHDLRGQVAKLEAALGEAKKQLQDEMLRRVDAENRLQTMKEELDFQKNIYSEELRETKRRHETRLVEIDNGKQREFESRLADALQELRAQHEDQVEQYKKELEKTYSAKLDNARQSAERNSNLVGAAHEELQQSRIRIDSLSAQLSQLQKQLAAKEAKLRDLEDSLARERDTSRRLLAEKEREMAEMRARMQQQLDEYQELLDIKLALDMEIHAYRKLLEGEEERLRLSPSPTSQRSRGRASSHSSQTQGGGSVTKKRKLESTESRSSFSQHARTSGRVAVEEVDEEGKFVRLRNKSNEDQSMGNWQIKRQNGDDPLLTYRFPPKFTLKAGQVVTIWAAGAGATHSPPTDLVWKAQNTWGCGNSLRTALINSTGEEVAMRKLVRSVTVVEDDEDEDGDDLLHHHHVSGSRR
On to B1, for which the binding result was “no binding”.
